Laboratory results from paper PMC9352680, “A comprehensive thermodynamic model for RNA binding by the Saccharomyces cerevisiae Pumilio protein PUF4”.

T1: PUF4 RNA-binding domain (Saccharomyces cerevisiae, UniProt P25339 537-888)
T1 sequence: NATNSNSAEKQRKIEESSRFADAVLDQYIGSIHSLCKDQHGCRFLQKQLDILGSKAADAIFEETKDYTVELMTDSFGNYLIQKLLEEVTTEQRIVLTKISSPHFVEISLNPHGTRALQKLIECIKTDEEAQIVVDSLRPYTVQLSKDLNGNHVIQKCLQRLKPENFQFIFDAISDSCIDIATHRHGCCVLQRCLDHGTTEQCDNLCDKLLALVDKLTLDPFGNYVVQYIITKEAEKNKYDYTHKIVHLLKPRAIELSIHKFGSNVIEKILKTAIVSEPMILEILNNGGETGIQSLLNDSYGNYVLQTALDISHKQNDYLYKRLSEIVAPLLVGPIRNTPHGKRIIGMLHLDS


molecular target: T1, PUF4 RNA-binding domain; assay: Mg; RNA-MaP; 20 mM Na-HEPES pH 7.4, 30 mM KOAc, 0.75 mM MgCl2, 0.1% Tween-20, 5% glycerol, 0.1 mg/mL BSA, 2 mM DTT; 25 C; 0.0125-409.6 nM protein; conditions: tags: N-His6-TEV cleaved; C-SNAP kept, Cy3B-labelled; label: tethered on chip by stalled RNA polymerase

**Q.** For UCUCUUGCUGUAUAUAACUCUCUU (ssRNA) [Id_ii_S1_P3E.2_K3.1_C3.2_[C-2G]_[T-1C]_H3.1_A3.1_F3.1_T3.2_[T9A]_[A10C]], which Kd is on record?
**A.** 18.8 nM

**Q.** Which Kd does the source give for UCUCUUUCUGUAUAUAGCUCUCUU (ssRNA) [Id_ii_S1_P3E.2_K3.1_C3.2_[C-2T]_[T-1C]_H3.1_A3.1_F3.1_T3.2_[T9G]_[A10C]] here?
**A.** 3.8 nM

**Q.** With UCUCUUUGUGUAUAUACCUCUCUU (ssRNA) [Id_ii_S1_P3E.2_K3.1_C3.2_[C-2T]_[T-1G]_H3.1_A3.1_F3.1_T3.2_[T9C]_[A10C]] as the binder, how does the Kd read?
**A.** 23.4 nM

**Q.** Which Kd does the source give for UCUCUUUUCAUAUUAUCUCUU (ssRNA) [Ib_S1_P4E.1_K4.1_C4.1_H4.1_[G2T]_[T3C]_A4.1_F4.1_T4.1] here?
**A.** > 2300 nM

**Q.** How did the Kd turn out when UCUCUUUUUGUAUAUAGCUCUCUU (ssRNA) [Id_ii_S1_P3E.2_K3.1_C3.2_[C-2T]_H3.1_A3.1_F3.1_T3.2_[T9G]_[A10C]] was run?
**A.** 5.32 nM

**Q.** With UCUCUUAGUGUAUAUAAUUCUCUU (ssRNA) [Id_ii_S1_P3E.2_K3.1_C3.2_[C-2A]_[T-1G]_H3.1_A3.1_F3.1_T3.2_[T9A]_[A10T]] as the binder, how does the Kd read?
**A.** 10.1 nM

**Q.** UCUCUUGCUGUAUAUAUUUCUCUU (ssRNA) [Id_ii_S1_P3E.2_K3.1_C3.2_[C-2G]_[T-1C]_H3.1_A3.1_F3.1_T3.2_[A10T]] was tested. Which Kd did it give?
**A.** 12.9 nM

**Q.** For UCUCUUGUUGUAUAUAAAUCUCUU (ssRNA) [Id_ii_S1_P3E.2_K3.1_C3.2_[C-2G]_H3.1_A3.1_F3.1_T3.2_[T9A]], which Kd is on record?
**A.** 8.84 nM

**Q.** Which Kd does the source give for UCUCUUUCUGUAUAUAGUUCUCUU (ssRNA) [Id_ii_S1_P3E.2_K3.1_C3.2_[C-2T]_[T-1C]_H3.1_A3.1_F3.1_T3.2_[T9G]_[A10T]] here?
**A.** 3.7 nM

**Q.** How did the Kd turn out when UCUCUUUCUGUAUAUAAUUCUCUU (ssRNA) [Id_ii_S1_P3E.2_K3.1_C3.2_[C-2T]_[T-1C]_H3.1_A3.1_F3.1_T3.2_[T9A]_[A10T]] was run?
**A.** 4.37 nM

**Q.** With UCUCUUGCUGUAUAUACUUCUCUU (ssRNA) [Id_ii_S1_P3E.2_K3.1_C3.2_[C-2G]_[T-1C]_H3.1_A3.1_F3.1_T3.2_[T9C]_[A10T]] as the binder, how does the Kd read?
**A.** 31.8 nM

**Q.** For UCUCUUUGUGUAUAUAUUUCUCUU (ssRNA) [Id_ii_S1_P3E.2_K3.1_C3.2_[C-2T]_[T-1G]_H3.1_A3.1_F3.1_T3.2_[A10T]], which Kd is on record?
**A.** 8.9 nM

**Q.** With UCUCUUAGUGUAUAUAAAUCUCUU (ssRNA) [Id_ii_S1_P3E.2_K3.1_C3.2_[C-2A]_[T-1G]_H3.1_A3.1_F3.1_T3.2_[T9A]] as the binder, how does the Kd read?
**A.** 14.1 nM

**Q.** For UCUCUUUCUGUAUAUACGUCUCUU (ssRNA) [Id_ii_S1_P3E.2_K3.1_C3.2_[C-2T]_[T-1C]_H3.1_A3.1_F3.1_T3.2_[T9C]_[A10G]], which Kd is on record?
**A.** 17.9 nM

**Q.** How did the Kd turn out when UCUCUUUAUGUAUAUAACUCUCUU (ssRNA) [Id_ii_S1_P3E.2_K3.1_C3.2_[C-2T]_[T-1A]_H3.1_A3.1_F3.1_T3.2_[T9A]_[A10C]] was run?
**A.** 13 nM

**Q.** For UCUCUUUCUGUAUAUAAAUCUCUU (ssRNA) [Id_ii_S1_P3E.2_K3.1_C3.2_[C-2T]_[T-1C]_H3.1_A3.1_F3.1_T3.2_[T9A]], which Kd is on record?
**A.** 8.49 nM

**Q.** UCUCUUAGUGUAUUAUCUCUU (ssRNA) [Ib_S1_P4E.1_K4.1_C4.1_H4.1_[T1A]_[A4G]_A4.1_F4.1_T4.1] was tested. Which Kd did it give?
**A.** 64 nM

**Q.** With UCUCUUGCUGUAUAUACCUCUCUU (ssRNA) [Id_ii_S1_P3E.2_K3.1_C3.2_[C-2G]_[T-1C]_H3.1_A3.1_F3.1_T3.2_[T9C]_[A10C]] as the binder, how does the Kd read?
**A.** 17.3 nM

**Q.** How did the Kd turn out when UCUCUUUUUGUAUAUAUCUCUCUU (ssRNA) [Id_ii_S1_P3E.2_K3.1_C3.2_[C-2T]_H3.1_A3.1_F3.1_T3.2_[A10C]] was run?
**A.** 7.26 nM

**Q.** Which Kd does the source give for UCUCUUGCUGUAUAUAUGUCUCUU (ssRNA) [Id_ii_S1_P3E.2_K3.1_C3.2_[C-2G]_[T-1C]_H3.1_A3.1_F3.1_T3.2_[A10G]] here?
**A.** 12.4 nM

**Q.** How did the Kd turn out when UCUCUUUUUGUAUAUAAGUCUCUU (ssRNA) [Id_ii_S1_P3E.2_K3.1_C3.2_[C-2T]_H3.1_A3.1_F3.1_T3.2_[T9A]_[A10G]] was run?
**A.** 11.6 nM

**Q.** With UCUCUUUAUGUAUAUACCUCUCUU (ssRNA) [Id_ii_S1_P3E.2_K3.1_C3.2_[C-2T]_[T-1A]_H3.1_A3.1_F3.1_T3.2_[T9C]_[A10C]] as the binder, how does the Kd read?
**A.** 15.5 nM

**Q.** UCUCUUUGUGUAUAUAUGUCUCUU (ssRNA) [Id_ii_S1_P3E.2_K3.1_C3.2_[C-2T]_[T-1G]_H3.1_A3.1_F3.1_T3.2_[A10G]] was tested. Which Kd did it give?
**A.** 8.9 nM

**Q.** Which Kd does the source give for UCUCUUUCUGUAUAUACUUCUCUU (ssRNA) [Id_ii_S1_P3E.2_K3.1_C3.2_[C-2T]_[T-1C]_H3.1_A3.1_F3.1_T3.2_[T9C]_[A10T]] here?
**A.** 9.31 nM

**Q.** Which Kd does the source give for UCUCUUUCUGUAUAUAACUCUCUU (ssRNA) [Id_ii_S1_P3E.2_K3.1_C3.2_[C-2T]_[T-1C]_H3.1_A3.1_F3.1_T3.2_[T9A]_[A10C]] here?
**A.** 5.55 nM

**Q.** UCUCUUGUUGUAUAUAUGUCUCUU (ssRNA) [Id_ii_S1_P3E.2_K3.1_C3.2_[C-2G]_H3.1_A3.1_F3.1_T3.2_[A10G]] was tested. Which Kd did it give?
**A.** 8.99 nM

**Q.** UCUCUUGCUGUAUAUAUCUCUCUU (ssRNA) [Id_ii_S1_P3E.2_K3.1_C3.2_[C-2G]_[T-1C]_H3.1_A3.1_F3.1_T3.2_[A10C]] was tested. Which Kd did it give?
**A.** 12.6 nM

**Q.** Which Kd does the source give for UCUCUUUUUGUAUAUAUAUCUCUU (ssRNA) [Id_ii_S1_P3E.2_K3.1_C3.2_[C-2T]_H3.1_A3.1_F3.1_T3.2] here?
**A.** 4.57 nM

**Q.** Which Kd does the source give for UCUCUUUCUGUAUUAUCUCUU (ssRNA) [Ib_S1_P4E.1_K4.1_C4.1_H4.1_[G2C]_[A4G]_A4.1_F4.1_T4.1] here?
**A.** 25.1 nM

**Q.** With UCUCUUUUUGUAUAUAAUUCUCUU (ssRNA) [Id_ii_S1_P3E.2_K3.1_C3.2_[C-2T]_H3.1_A3.1_F3.1_T3.2_[T9A]_[A10T]] as the binder, how does the Kd read?
**A.** 8.27 nM

**Q.** UCUCUUUAUGUAUAUAUGUCUCUU (ssRNA) [Id_ii_S1_P3E.2_K3.1_C3.2_[C-2T]_[T-1A]_H3.1_A3.1_F3.1_T3.2_[A10G]] was tested. Which Kd did it give?
**A.** 9.53 nM

**Q.** For UCUCUUAGUGUAUAUAUGUCUCUU (ssRNA) [Id_ii_S1_P3E.2_K3.1_C3.2_[C-2A]_[T-1G]_H3.1_A3.1_F3.1_T3.2_[A10G]], which Kd is on record?
**A.** 11 nM
